The text below walks through data of US20120201792A1, “METHODS AND PRODUCTS FOR MANIPULATING HEMATOPOIETIC STEM CELLS” (The General Hospital Corporation, priority 2000, published 2012).

Assay [1] concerns the target T1, SC-GPR (Homo sapiens, UniProt Q15391).
T1 sequence (Q15391 1-338): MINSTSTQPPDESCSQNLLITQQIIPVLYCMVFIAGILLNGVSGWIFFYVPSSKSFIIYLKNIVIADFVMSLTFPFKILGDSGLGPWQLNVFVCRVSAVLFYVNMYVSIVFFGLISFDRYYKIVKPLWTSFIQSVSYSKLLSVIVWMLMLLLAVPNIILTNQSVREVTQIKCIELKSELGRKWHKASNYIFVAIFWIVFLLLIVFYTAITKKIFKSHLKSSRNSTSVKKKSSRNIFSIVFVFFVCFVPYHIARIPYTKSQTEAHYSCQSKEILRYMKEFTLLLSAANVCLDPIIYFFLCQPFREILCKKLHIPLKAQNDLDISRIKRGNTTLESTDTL
The experiment in a line: Intracellular calcium flux (Fura-2) in Cos-7 cells expressing SC-GPR. The note with it: Fura-2 loaded cells expressing SC-GPR, fluorescence ratio F340/F380.

Assay [2] concerns the target T2, KIAA0001 receptor (Homo sapiens, UniProt Q15391).
T2 sequence (Q15391 1-338): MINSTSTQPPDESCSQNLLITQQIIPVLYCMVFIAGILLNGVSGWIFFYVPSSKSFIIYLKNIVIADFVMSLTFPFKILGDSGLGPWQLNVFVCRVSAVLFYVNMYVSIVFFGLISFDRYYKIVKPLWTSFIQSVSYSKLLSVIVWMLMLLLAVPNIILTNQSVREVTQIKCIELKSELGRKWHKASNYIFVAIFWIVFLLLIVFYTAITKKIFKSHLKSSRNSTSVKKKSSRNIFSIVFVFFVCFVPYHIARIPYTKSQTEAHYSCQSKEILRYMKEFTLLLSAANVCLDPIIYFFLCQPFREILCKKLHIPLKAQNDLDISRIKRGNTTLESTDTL
The note with it: Chambers et al., 2000 J Biol Chem; cited from earlier work.

As for `Nc1ncnc2c1ncn2[C@@H]1O[C@H](COP(=O)(O)OP(=O)(O)OP(=O)(O)O)[C@@H](O)[C@H]1O` [ATP], in assay [1], the “calcium flux / activation of SC-GPR expressing cells” value (shortened to “calcium flux / activation”) is “failed to result in activation”. For `CCCCC/C=C\C[C@@H](O)/C=C/C=C/C=C\[C@@H](O)CCCC(=O)O` [LTB4], in assay [1], the “calcium flux / activation” value is “failed to result in activation”.

As for `CCCCCCCCCCCCCCCCOC[C@H](COP(=O)([O-])OCC[N+](C)(C)C)OC(C)=O` [PAF], the “calcium flux / activation” value in assay [1] is recorded as “failed to result in activation”. As for `CC(=O)N[C@H]1[C@@H](OP(=O)(O)OP(=O)(O)OC[C@H]2O[C@@H](n3ccc(=O)[nH]c3=O)[C@H](O)[C@@H]2O)O[C@H](CO)[C@@H](O)[C@@H]1O` [UDP-N-acetylglucosamine], in assay [2], the “binding to the receptor and induction of calcium flux” value is “bind to the receptor and induce calcium flux”. Turning to `O=C(O)[C@H]1O[C@H](OP(=O)(O)OP(=O)(O)OC[C@H]2O[C@@H](n3ccc(=O)[nH]c3=O)[C@H](O)[C@@H]2O)[C@H](O)[C@@H](O)[C@@H]1O` [UDP-glucuronic acid], in assay [2], the “binding to the receptor and induction of calcium flux” value is “bind to the receptor and induce calcium flux”. “IL-8: known chemokine screened as potential SC-GPR ligand”: the “calcium flux / activation” value in assay [1] is reported as “failed to result in activation”. Still for that read-out and setting: as for “MCP 1: known chemokine screened as potential SC-GPR ligand”, the entry is “failed to result in activation”; as for “MCP 3: printed as "MCP 1, 3, 4"; known chemokine screened”, “failed to result in activation”; as for “MCP 4: printed as "MCP 1, 3, 4"; known chemokine screened”, “failed to result in activation”. Take “MIP1a: known chemokine screened as potential SC-GPR ligand”: the “calcium flux / activation” value in assay [1] is on record as “failed to result in activation”. For the molecule “PF4: known chemokine screened as potential SC-GPR ligand”, the “calcium flux / activation” value in assay [1] is reported as “failed to result in activation”. In the case of “RANTES: known chemokine screened as potential SC-GPR ligand”, in assay [1], the “calcium flux / activation” value is given as “failed to result in activation”. Consider “SDF-1: known chemokine screened as potential SC-GPR ligand”, for which, in assay [1], the “calcium flux / activation” value was “failed to result in activation”.

B1: TARC: known chemokine screened as potential SC-GPR ligand (protein)
chain: ARGTNVGRECCLEYFKGAIPLRKLKTWYQTSEDCSRDAIVFVTVQGRAICSDPNNKRVKNAVKYLQSLERS
Consider B1, for which, in assay [1], the “calcium flux / activation” value is on record as “failed to result in activation”.

B2: MIP1b: known chemokine screened as potential SC-GPR ligand (protein)
chain: APMGSDPPTACCFSYTARKLPRNFVVDYYETSSLCSQPAVVFQTKRSKQVCADPSESWVQEYVYDLELN
Turning to B2, in assay [1], the “calcium flux / activation” value was “failed to result in activation”.
